Laboratory results: US7052692

Key:
[1] = molecular target: D-sequence-binding protein (D-BP) (human); experiment: cell-based or functional assay
[2] = tested on: D-sequence-binding protein (D-BP), dephosphorylated form

Row | Substance | Ratio of dephosphorylated/phosphorylated ssD-BP, EGF-R-transfected 293 clone 293-4 [1] | Ratio of dephosphorylated/phosphorylated ssD-BP, EGF-R-transfected 293 clone 293-5 [1] | Ratio of dephosphorylated/phosphorylated ssD-BP, EGF-R-transfected 293 clone 293-6 [1] | Ratio of dephosphorylated/phosphorylated ssD-BP, EGF-R-transfected 293 clone 293-8 [1] | Ratio of dephosphorylated/phosphorylated ssD-BP, EGF-R-transfected 293 clone 293-12 [1] | Ratio of dephosphorylated/phosphorylated ssD-BP, control untransfected 293 cells [1] | Ratio of dephosphorylated/phosphorylated ssD-BPs, average of the EGF-R-transfected 293 cell clones [1] | in vitro phosphorylation assay followed by EMSA with the D(-) probe [2]
1 | human epidermal growth factor receptor (EGF-R) (from UniProt P00533 25-1210) | 0.31 | 0.45 | 0.36 | 0.51 | 0.64 | 3.5 | 0.45 | 
2 | purified EGF-R PTK (CalBiochem) |  |  |  |  |  |  |  | incubation of the ssD-BP with the purified EGF-R PTK resulted in phosphorylation of this protein whereas incubation in the presence of ATP alone had no effect
